Laboratory results from patent US20260070975A1 (SANTA ANA BIO, published 2026).
Changes are numbered by the printed parent chain.

T1: His-tagged FLT3 extracellular domain (UniProt P36888 27-543, limits assumed)
T1 construct: extracellular domain; also called c-Kit family member; not shown: His tag
T1 sequence (looked up): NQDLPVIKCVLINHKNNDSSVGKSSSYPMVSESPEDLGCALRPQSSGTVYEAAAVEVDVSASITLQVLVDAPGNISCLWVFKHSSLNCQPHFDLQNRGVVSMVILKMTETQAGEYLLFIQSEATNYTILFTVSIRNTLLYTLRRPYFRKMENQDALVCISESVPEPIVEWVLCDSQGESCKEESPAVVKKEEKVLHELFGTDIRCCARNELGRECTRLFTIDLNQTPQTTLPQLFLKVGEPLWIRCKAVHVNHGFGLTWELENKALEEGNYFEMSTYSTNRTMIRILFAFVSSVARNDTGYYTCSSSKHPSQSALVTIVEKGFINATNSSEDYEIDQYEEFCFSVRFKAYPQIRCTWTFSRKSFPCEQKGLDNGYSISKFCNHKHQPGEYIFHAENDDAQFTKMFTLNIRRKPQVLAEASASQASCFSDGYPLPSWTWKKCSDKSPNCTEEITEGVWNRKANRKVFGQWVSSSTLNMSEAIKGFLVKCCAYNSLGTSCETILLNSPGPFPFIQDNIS

B1: hSR1-1 (antibody, human IgG1, kappa, V domains shown)
VH: QVQLVQSGAEVKKPGASVKVSCKASGYTFTSYNMHWVRQAPGQGLEWMGVIYSGNGDTSYAQKFQGRVTMTADTSTSTAYMELSSLRSEDTAVYYCARERDTRFGNWGQGTLVTVSS
VL: DIQLTQSPSSLSASVGDRATITCRASESVDIYGNSFMHWYQQKPGKAPKLLIYLASNLESGVPSRFSGSGSGTDFTLTISSVQPEDFATYYCQQNNEDPYTFGQGTKLEIKR
notes: Humanized anti-c-Kit antibody; also called humanized SR1-1; hSR1-H2 / hSR1-L2
B2: hSR1-6 (antibody, human IgG1, kappa, V domains shown)
VH: B1 VH with V20M, M48I, V68A, M70L
VL: B1 VL with G72R
notes: also called humanized SR1-6; hSR1-H3 / hSR1-L2r
B3: hSR1-3 (antibody, human IgG1, kappa, V domains shown)
VH: B1 VH with T74K
VL: B1 VL
notes: also called humanized SR1-3; hSR1-H2b / hSR1-L2
B4: hSR1-5 (antibody, human IgG1, kappa, V domains shown)
VH: B1 VH
VL: B1 VL with G72R
notes: also called humanized SR1-5; hSR1-H2 / hSR1-L2r
B5: hSR1-2 (antibody, human IgG1, kappa, V domains shown)
VH: B1 VH with V20M, M48I, V68A, M70L
VL: B1 VL
notes: also called humanized SR1-2; hSR1-H3 / hSR1-L2
B6: hSR1-4 (antibody, human IgG1, kappa, V domains shown)
VH: B1 VH with V20M, M48I, V68A, M70L, T74K
VL: B1 VL
notes: also called humanized SR1-4; hSR1-H3b / hSR1-L2
B7: Murine anti-c-Kit SR1 (mSR1) (antibody, mouse IgG2a, kappa)
heavy: QVQLQQPGAELVKPGASVKMSCKASGYTFTSYNMHWVKQTPGQGLEWIGVIYSGNGDTSYNQKFKGKATLTADKSSSTAYMQINSLTSEDSAVYYCARERDTRFGNWGQGTLVTVSAAKTTAPSVYPLAPVCGDTTGSSVTLGCLVKGYFPEPVTLTWNSGSLSSGVHTFPAVLQSDLYTLSSSVTVTSSTWPSQSITCNVAHPASSTKVDKKIEPRGPTIKPCPPCKCPAPNLLGGPSVFIFPPKIKDVLMISLSPIVTCVVVDVSEDDPDVQISWFVNNVEVHTAQTQTHREDYNSTLRVVSALPIQHQDWMSGKEFKCKVNNKDLPAPIERTISKPKGSVRAPQVYVLPPPEEEMTKKQVTLTCMVTDFMPEDIYVEWTNNGKTELNYKNTEPVLDSDGSYFMYSKLRVEKKNWVERNSYSCSVVHEGLHNHHTTKSFSRTPGK
light: NIVLTQSPASLAVSLGLRATISCRASESVDIYGNSFMHWYQQKPGQPPKLLIYLASNLESGVPARFSGSGSRTDFTLTIDPVEADDAATYYCQQNNEDPYTFGGGTKLEIKRADAAPTVSIFPPSSEQLTSGGASVVCFLNNFYPKDINVKWKIDGSERQNGVLNSWTDQDSKDSTYSMSSTLTLTKDEYERHNSYTCEATHKTSTSPIVKSFNRNEC
B8: anti-siglec/anti-c-Kit bispecific JML-1/hSR1-1 (bispecific antibody, V domains shown)
VH 1: KVQLLESGGGLVQPGRSLRLSCAASGFTFDDYGMHWVRQAPGKGLEWVSGISWNSGSIGYADSVKGRFTISRDNSKNTLYLQMNSLRAEDTAVYYCARGGQTIDIWGQGTMVTVSS
VL 1: not shown
VH 2: B1 VH
VL 2: DIQLTQSPSSLSASVGDRATITCRASESVDIYGNSFMHWYQQKPGKAPKLLIYLASNLESGVPSRFSGSGSGTDFTLTISSVQPEDFATYYCQQNNEDPYTFGQGTKLEIK
B9: anti-siglec/anti-c-Kit bispecific hRND-3/hSR1-1 (bispecific antibody, V domains shown)
VH 1: QVQLVQSGAEVKKPGASVKLSCKASGYAFTSYWMHWVRQAPGQRLEWIGEIYPTNGGTTYAQKFQGRATLTVDKSTSTAYMELSRLRSDDTAVYYCTIEDFYAMDYWGQGTTVTVSS
VL 1: DIVMTQTPLSLSVTPGQPASISCKSSQSLLDSDGKTSLNWLLQKPGQSPQRLIYLVSKLDSGVPDRFSGSGSGTDFTLKISRVEAEDVGVYYCWQGTHFPYTFGQGTKLEIK
VH 2: B1 VH
VL 2: B8 VL 2
B10: Murine anti-siglec-6 RND (mRND) (antibody, mouse IgG2a, kappa, V domains shown)
VH: QVQLQQPGAELVKPGASVKLSCKASGYAFTSYWMHWVKLRPGQGFEWIGEIYPTNGGTTYNEKFKRKATLTVDKSSSTAYMQLSSLTSEDSAVYYCTIEDFYAMDYWGQGTSVTVSS
VL: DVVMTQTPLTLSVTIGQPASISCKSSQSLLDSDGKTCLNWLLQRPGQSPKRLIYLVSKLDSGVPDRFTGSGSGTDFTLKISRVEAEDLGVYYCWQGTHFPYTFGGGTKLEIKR
notes: also called murine RND; copies: 2 + 2

The binders below were run against T2, His-tagged PDGFRa extracellular domain (UniProt P16234 24-528, limits assumed) (assay: ELISA, His-tagged extracellular domain coated).
T2 construct: extracellular domain; also called c-Kit family member; not shown: His tag
T2 sequence (P16234 24-528 limits assumed): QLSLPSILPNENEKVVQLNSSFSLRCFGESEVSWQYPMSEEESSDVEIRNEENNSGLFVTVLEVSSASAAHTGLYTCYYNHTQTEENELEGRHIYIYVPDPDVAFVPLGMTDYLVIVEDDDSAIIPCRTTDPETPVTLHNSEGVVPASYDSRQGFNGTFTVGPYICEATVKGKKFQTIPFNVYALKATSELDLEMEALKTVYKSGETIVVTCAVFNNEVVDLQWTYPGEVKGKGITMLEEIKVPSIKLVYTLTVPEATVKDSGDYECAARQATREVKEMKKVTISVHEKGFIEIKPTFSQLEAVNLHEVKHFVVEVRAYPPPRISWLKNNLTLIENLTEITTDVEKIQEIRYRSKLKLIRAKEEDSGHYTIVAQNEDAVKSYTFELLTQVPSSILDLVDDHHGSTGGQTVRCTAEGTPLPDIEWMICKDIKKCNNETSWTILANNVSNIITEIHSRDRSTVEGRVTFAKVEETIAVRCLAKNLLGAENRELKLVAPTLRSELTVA
Description: (§1) His-tagged human c-Kit, His-tagged cynomolgus c-Kit, and His-tagged PDGFRa, PDGFRb, CSF1R, and FLT3 extracellular domains were immobilized on 96 well ELISA plates. Plates were washed with PBST (Phosphate buffered saline+0.05% Tween 20) and blocked for 1 hour with 1% BSA in PBS. Following washing with PBST, mAbs were added to the coated plate and incubated for 2 hours at room temperature. Plates were washed and incubated with HRP-conjugated goat anti-human IgG secondary antibody for 1 hour at room temperature. Following washing, antibody binding was detected colorimetrically by adding 3,3′,5,5′-tetramethylbenzidine (TMB) and incubated at room temperature for 10-20 minutes before adding 2.5N sulfuric acid stopping solution. Absorbance at 450 nm was measured on a plate reader (PerkinElmer). Data was analyzed using GraphPad Prism.

binding result	Binder
no binding	B1
no binding	B2
no binding	B3
no binding	B4
no binding	B5
no binding	B6

What follows are binders tested against T1, His-tagged FLT3 extracellular domain (assay: ELISA, His-tagged extracellular domain coated).
Description: as §1

binding result	Binder
no binding	B1
no binding	B2
no binding	B3
no binding	B4
no binding	B5
no binding	B6

Each binder was assayed against T3, His-tagged PDGFRb extracellular domain (UniProt P09619 33-532, limits assumed) (assay: ELISA, His-tagged extracellular domain coated).
T3 construct: extracellular domain; also called c-Kit family member; not shown: His tag
T3 sequence (P09619 33-532 limits assumed): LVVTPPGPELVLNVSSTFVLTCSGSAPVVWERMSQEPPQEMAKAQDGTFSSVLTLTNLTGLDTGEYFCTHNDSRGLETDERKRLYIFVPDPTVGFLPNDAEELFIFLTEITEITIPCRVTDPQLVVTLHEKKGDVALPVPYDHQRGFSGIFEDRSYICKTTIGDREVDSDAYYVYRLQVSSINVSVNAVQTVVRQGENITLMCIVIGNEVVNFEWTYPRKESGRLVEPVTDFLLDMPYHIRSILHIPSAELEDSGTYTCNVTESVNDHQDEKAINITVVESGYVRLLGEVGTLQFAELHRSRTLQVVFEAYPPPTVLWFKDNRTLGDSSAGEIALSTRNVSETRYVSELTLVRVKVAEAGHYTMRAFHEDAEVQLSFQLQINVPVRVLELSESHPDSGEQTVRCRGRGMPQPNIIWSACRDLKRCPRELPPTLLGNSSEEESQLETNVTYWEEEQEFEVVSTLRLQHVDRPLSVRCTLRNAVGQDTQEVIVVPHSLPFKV
Description: as §1

binding result	Binder
no binding	B1
no binding	B2
no binding	B3
no binding	B4
no binding	B5
no binding	B6

These binders were tested against T4, His-tagged CSF1R extracellular domain (UniProt P07333 20-517, limits assumed) (assay: ELISA, His-tagged extracellular domain coated).
T4 construct: extracellular domain; also called c-Kit family member; not shown: His tag
T4 sequence (P07333 20-517 limits assumed): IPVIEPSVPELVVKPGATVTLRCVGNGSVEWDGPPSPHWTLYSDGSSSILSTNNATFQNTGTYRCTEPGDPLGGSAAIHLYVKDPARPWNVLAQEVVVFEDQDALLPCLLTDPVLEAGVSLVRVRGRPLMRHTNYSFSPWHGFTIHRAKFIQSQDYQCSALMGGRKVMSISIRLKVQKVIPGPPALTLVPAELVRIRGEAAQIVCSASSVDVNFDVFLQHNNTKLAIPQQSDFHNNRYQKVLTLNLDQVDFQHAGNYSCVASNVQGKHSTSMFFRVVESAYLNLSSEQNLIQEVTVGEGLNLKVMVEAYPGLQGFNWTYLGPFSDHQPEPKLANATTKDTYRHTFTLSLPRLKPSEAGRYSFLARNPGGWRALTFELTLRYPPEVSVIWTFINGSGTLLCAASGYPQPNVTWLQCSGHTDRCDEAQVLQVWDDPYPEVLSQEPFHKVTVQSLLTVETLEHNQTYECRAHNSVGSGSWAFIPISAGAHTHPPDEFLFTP
Description: as §1

binding result	Binder
no binding	B1
no binding	B2
no binding	B3
no binding	B4
no binding	B5
no binding	B6

These binders were tested against T5, c-Kit expressed on the cell surface of M-07e cells (human, UniProt P10721 26-976) (assay: cell-based or functional assay).
T5 sequence (P10721 26-976): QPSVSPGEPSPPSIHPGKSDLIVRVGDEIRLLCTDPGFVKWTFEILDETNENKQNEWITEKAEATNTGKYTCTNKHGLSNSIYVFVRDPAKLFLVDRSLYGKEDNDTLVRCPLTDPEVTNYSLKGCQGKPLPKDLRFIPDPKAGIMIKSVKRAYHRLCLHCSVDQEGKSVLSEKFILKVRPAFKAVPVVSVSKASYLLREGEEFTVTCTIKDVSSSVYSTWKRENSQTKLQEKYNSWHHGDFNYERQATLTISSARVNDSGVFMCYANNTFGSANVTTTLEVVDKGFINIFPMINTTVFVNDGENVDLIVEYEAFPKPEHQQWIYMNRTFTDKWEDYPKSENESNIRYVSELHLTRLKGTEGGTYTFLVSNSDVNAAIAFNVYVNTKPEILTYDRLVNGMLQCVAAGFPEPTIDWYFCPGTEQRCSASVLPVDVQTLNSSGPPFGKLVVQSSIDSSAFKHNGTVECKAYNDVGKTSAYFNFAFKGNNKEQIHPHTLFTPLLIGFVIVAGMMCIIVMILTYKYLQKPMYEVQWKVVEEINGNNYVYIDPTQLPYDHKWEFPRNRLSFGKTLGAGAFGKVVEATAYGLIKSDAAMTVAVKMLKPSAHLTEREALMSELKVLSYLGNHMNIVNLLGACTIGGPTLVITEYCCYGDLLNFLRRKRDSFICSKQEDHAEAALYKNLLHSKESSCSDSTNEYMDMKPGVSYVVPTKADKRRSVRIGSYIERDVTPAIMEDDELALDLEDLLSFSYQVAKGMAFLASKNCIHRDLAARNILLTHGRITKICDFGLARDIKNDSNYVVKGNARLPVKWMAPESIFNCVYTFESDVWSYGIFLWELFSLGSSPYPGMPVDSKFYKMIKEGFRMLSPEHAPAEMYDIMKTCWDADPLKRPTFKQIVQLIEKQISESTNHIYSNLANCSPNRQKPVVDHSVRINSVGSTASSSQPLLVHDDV

IC50, inhibition of SCF-dependent proliferation of M-07e cells [nM]	Binder
0.141	B1
0.152	B2
0.113	B3
0.141	B4
0.142	B5
0.139	B6
0.283	B7

Biological target: T5, c-Kit expressed on the cell surface of …
Experiment: cell-based or functional assay
Remark: another data set of the same source

IC50 (read off the curve) [nM]	Binder
~0.3	B8
~0.2	B9

Each binder was assayed against Human c-Kit (BLI analyte) (human, UniProt P10721 26-520, limits assumed) (assay: BLI (Octet), antibody on capture sensor).
Human c-Kit (BLI analyte), sequence (P10721 26-520 limits assumed): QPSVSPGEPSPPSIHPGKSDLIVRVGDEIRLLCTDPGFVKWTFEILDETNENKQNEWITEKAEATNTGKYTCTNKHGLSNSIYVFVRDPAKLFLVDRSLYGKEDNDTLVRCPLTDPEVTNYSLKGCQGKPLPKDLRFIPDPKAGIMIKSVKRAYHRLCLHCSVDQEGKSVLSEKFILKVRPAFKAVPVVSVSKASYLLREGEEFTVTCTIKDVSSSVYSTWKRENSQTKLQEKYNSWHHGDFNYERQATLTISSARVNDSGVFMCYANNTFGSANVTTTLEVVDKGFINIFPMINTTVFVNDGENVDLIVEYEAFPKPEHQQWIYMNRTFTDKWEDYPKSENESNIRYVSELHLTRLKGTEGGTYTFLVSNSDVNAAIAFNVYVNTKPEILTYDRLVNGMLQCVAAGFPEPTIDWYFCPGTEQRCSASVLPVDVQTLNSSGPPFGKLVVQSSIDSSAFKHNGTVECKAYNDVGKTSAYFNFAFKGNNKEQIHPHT
Description: (§2) Further, binding affinities of c-Kit antibodies to human c-Kit and cynomolgus c-Kit were measured by biolayer interferometry ([…]) using an Octect instrument. Briefly, capture sensors were loaded with test antibodies with 3-fold dilutions. The association and dissociation rates to were determined and used to calculate the equilibrium dissociation constant KD (Table 3).

Kd [nM]	Binder
0.199	B1
0.247	B2
0.256	B3
0.256	B4
0.245	B5
0.386	B6

The binders below were run against T6, Cynomolgus c-Kit (BLI analyte) (cynomolgus) (assay: BLI (Octet), antibody on capture sensor).
T6 construct: also called Cynomoguls c-Kit
Description: as §2

Kd [nM]	Binder
0.232	B1
0.296	B2
0.332	B3
0.405	B4
0.389	B5
0.563	B6

What follows are binders tested against T7, Human siglec-6 expressed on the cell surface (HMC1.2 cells; HEK293 cells expressing human siglec-6) (human, UniProt O43699 27-453) (assay: flow cytometry on HMC1.2 cells).
T7 construct: whole, on cells; also called cell surface expressed siglec-6; CD327
T7 sequence (O43699 27-453): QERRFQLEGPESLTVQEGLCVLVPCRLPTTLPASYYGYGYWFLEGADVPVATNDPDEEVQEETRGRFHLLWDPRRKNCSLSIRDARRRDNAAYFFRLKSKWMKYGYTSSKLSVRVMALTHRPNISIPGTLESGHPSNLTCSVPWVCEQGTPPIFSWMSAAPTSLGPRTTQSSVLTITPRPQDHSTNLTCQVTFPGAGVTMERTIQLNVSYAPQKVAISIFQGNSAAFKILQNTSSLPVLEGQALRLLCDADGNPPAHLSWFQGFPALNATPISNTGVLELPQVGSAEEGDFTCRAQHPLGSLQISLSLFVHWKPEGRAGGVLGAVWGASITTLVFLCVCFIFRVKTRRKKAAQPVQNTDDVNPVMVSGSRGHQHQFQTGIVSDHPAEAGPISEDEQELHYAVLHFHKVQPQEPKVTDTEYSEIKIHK
Description: (§3) Target binding of siglec-6 antibodies to siglec-6-expressing cells was assessed by flow cytometry. Cultured HMC1.2 cells were resuspended in FACS Blocking Buffer (PBS+10% normal human serum) for 30 minutes. Following washing, cells were incubated with siglec-6 antibodies in FACS Buffer (PBS+0.5% bovine serum albumin+0.09% sodium azide) and incubated at 4° C. for 30 minutes, washed and incubated with PE-labeled anti-human or anti-mouse secondary antibodies. Cells were incubated at 4° C. for 30 minutes in the dark. Following washing, cytofluorimetric analysis was conducted using a BD FACS Symphony A3 (BD Biosciences). Cells were sorted by scatter properties and separated for single cell analysis using side scatter width vs side scatter area. Antibody binding to cells was quantitated by measuring fluorescent emissions of excitation wavelength of 561 nm using a 586/15 nm filter. All tested siglec-6 antibodies were capable of binding to cells expressing siglec-6.

MFI [MFI]	Percent Positive for Siglec-6 on HMC1.2 cells [%]	Binder
1970	99.9	B10

Each binder was assayed against T5, c-Kit expressed on the cell surface of … (assay: flow cytometry on M-07e cells).
Description: as §3, with “c-Kit” for “siglec-6”, “c-Kit-expressing” for “siglec-6-expressing”, “M-07e” for “HMC1.2”, “anti-human” for “anti-human or anti-mouse”, “antibody.” for “antibodies.”, “c-Kit.” for “siglec-6.”

Measuring Fluorescent Intensity (MFI)	Percent Positive for c-Kit on M-07e cells [%]	Binder
5020	99.5	B1
3590	99.4	B2
5190	99.8	B3
4030	99.5	B4
5200	99.7	B5
4960	99.8	B6
